Reference: patent US20230035403A1 (Janssen / Centocor, published 2023)

B1: P27 9-mer FPVGAEGTF (peptide)
peptide: FPVGAEGTF
notes: 9-mer fragment of neoantigen P27; synthetic peptide
B2: P16 9-mer STRRAVRRM (peptide)
peptide: STRRAVRRM
notes: 9-mer fragment of neoantigen P16 (MSMB-NCOA4 fusion); synthetic peptide
B3: P37 9-mer GVLRRLLCR (peptide)
peptide: GVLRRLLCR
notes: 9-mer fragment of neoantigen P37; synthetic peptide
B4: P35 9-mer NSKMALNSL (peptide)
peptide: NSKMALNSL
notes: 9-mer fragment of neoantigen P35; synthetic peptide
B5: P77 9-mer FFKRAAEGF (peptide)
peptide: FFKRAAEGF
notes: 9-mer fragment of neoantigen P77 (AR-V3); synthetic peptide
B6: P50 9-mer IQYSCMGLM (peptide)
peptide: IQYSCMGLM
notes: 9-mer fragment of neoantigen P50; synthetic peptide
B7: P59 9-mer NMVENGCYL (peptide)
peptide: NMVENGCYL
notes: 9-mer fragment of neoantigen P59; synthetic peptide

Each binder was assayed against T1, HLA-A*24:02 (human, biotinylated heavy chain) (assay: UV-induced peptide exchange, HLA class I ELISA; Pos peptide = 100%;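 further: Streptavidin-captured biotinylated HLA class I complexes detected by HRP-conjugated anti-human B2M antibody, absorbance readout of intact complex amount after exchange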).
T1 construct: Conditional HLA class I complex whose UV-labile peptide is exchanged for the test peptide
Protocol: (§1) The exchange efficiency between the peptide of interest and Pos was analyzed using an HLA class I ELISA.
(§2) The HLA class I ELISA is an enzyme immunoassay based on the detection of beta2-microglobulin (B2M) of (peptide-stabilized) HLA class I complexes. To this end streptavidin was bound onto polystyrene microtiter wells. After washing and blocking, HLA complex present in exchange reaction mixtures or ELISA controls was captured by the streptavidin on the microtiter plate via its biotinylated heavy chain. Non-bound material was removed by washing. Subsequently, horseradish peroxidase (HRP)-conjugated antibody to human B2M was added. […] In the latter case B2M was removed during the washing step. After removal of non-bound HRP conjugate by washing, a substrate solution was added to the wells. A coloured product formed in proportion to the amount of intact HLA complex present in the samples. After the reaction was terminated by the addition of a stop solution, absorbance was measured in a microtiter plate reader.

Binder | exchange rate with Pos peptide [%]
B1 | 0.7
B2 | 0.8
B3 | -0.1
B4 | 0.2
B5 | 1.7
B6 | 0.1
B7 | -0.5

These binders were tested against T2, HLA-B*07:02 (human, biotinylated heavy chain) in the same assay as above.
T2 construct: Conditional HLA class I complex whose UV-labile peptide is exchanged for the test peptide
Protocol: as §1, §2

Binder | exchange rate with Pos peptide [%]
B1 | 7.8
B2 | 13.7
B4 | 12.1
B5 | 14.2
B6 | 10.4
B7 | 7.5

These binders were tested against T3, HLA-A*01:01 (human, biotinylated heavy chain) in the same assay as above.
T3 construct: Conditional HLA class I complex whose UV-labile peptide is exchanged for the test peptide
Protocol: as §1, §2

Binder | exchange rate with Pos peptide [%]
B1 | 4.8
B2 | 5.5
B3 | 1.4
B4 | 2.5
B5 | 1.9
B6 | 2.3
B7 | 2.2

Each binder was assayed against T4, HLA-A*02:01 (human, biotinylated heavy chain) in the same assay as above.
T4 construct: Conditional HLA class I complex whose UV-labile peptide is exchanged for the test peptide
Protocol: as §1, §2

Binder | exchange rate with Pos peptide [%]
B1 | 10
B2 | 10.4
B3 | 12.5
B4 | 12.5
B6 | 8.8
B7 | 11.9

These binders were tested against T5, HLA-A*03:01 (human, biotinylated heavy chain) in the same assay as above.
T5 construct: Conditional HLA class I complex whose UV-labile peptide is exchanged for the test peptide
Protocol: as §1, §2

Binder | exchange rate with Pos peptide [%]
B1 | 4.5
B2 | 6.1
B3 | 6.4
B4 | 4.2
B5 | 2.8
B6 | 5.5
B7 | 4.5
